B1: Prolactin, P01236 (parent)
chain: MNIKGSPWKGSLLLLLVSNLLLCQSVAPLPICPGGAARCQVTLRDLFDRAVVLSHYIHNLSSEMFSEFDKRYTHGRGFITKAINSCHTSSLATPEDKEQAQQMNQKDFLSLIVSILRSWNEPLYHLVTEVRGMQEAPEAILSKAVEIEEQTKRLLEGMELIVSQVHPETKENEIYPVWSGLPSLQMADEESRLSAYYNLLHCLRRDSHKIDNYLKLLKCRIIHNNNC

Variants of: B1
Details: Homo sapiens; pH 7.4; Thermal; CD; NaH2PO4 100mM; structure 1RW5; whole UniProt chain shown

Row | Variant | Tm [°C] | change of melting temperature, mutant - wild type (higher = more stable) [°C] | unfolding enthalpy (calorimetric) [kcal/mol]
1 | G157R | 79 | -2.2 | 55.9
2 | G157V | 101 | 19.7 | 
3 | G157D | 84.2 | 3.1 | 58
4 | G157P | 70.8 | -10.3 | 50.1
5 | G157Y | 96.8 | 15.7 | 
6 | G157L | 96.8 | 15.7 | 
7 | G157F | 93.8 | 12.7 | 
8 | G157N | 89.8 | 8.7 | 
